Columns and labels:
[1] = molecular target: FITC-labeled bovine type-1 collagen (Chondrex, Cat# 4001), P02453
[2] = molecular target: T1, synthetic MMP1 substrate MCA-Lys-Pro-Leu-Gly-Leu-DPA-Ala-Arg-NH2 (R&D Systems, Cat# ES010)
T1 chain: KPLGLXAR

Chain of FITC-labeled bovine type-1 collagen (Chondrex, Cat# 4001), P02453 (P02453 162-1217, chain 1 of 2): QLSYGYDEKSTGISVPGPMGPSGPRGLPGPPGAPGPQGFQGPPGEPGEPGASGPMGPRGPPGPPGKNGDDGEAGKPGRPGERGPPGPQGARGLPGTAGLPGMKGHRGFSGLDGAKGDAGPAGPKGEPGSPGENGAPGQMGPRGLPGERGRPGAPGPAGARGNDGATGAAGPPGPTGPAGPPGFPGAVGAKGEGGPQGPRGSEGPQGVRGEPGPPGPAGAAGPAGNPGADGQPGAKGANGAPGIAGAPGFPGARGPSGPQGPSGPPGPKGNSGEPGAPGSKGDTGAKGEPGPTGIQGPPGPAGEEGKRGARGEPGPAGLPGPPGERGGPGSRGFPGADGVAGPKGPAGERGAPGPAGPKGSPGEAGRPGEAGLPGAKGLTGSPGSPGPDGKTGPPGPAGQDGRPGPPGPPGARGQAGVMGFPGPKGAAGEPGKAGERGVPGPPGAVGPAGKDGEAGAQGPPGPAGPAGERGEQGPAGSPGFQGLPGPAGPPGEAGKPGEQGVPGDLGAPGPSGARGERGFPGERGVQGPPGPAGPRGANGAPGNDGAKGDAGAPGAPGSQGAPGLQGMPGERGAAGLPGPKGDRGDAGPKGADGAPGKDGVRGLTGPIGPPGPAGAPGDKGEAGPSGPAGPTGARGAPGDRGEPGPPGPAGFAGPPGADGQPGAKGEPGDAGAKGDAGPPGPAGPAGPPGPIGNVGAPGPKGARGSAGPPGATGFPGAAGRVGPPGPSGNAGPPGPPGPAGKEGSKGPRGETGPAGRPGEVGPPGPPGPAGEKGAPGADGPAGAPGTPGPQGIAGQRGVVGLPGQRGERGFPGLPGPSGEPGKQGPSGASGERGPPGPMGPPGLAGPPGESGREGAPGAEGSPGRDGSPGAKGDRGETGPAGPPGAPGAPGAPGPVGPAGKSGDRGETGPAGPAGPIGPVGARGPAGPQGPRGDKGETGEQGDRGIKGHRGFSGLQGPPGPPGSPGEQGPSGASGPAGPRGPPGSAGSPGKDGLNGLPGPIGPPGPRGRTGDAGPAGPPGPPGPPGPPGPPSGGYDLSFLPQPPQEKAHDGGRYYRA
Chain of FITC-labeled bovine type-1 collagen (Chondrex, Cat# 4001), P02453 (P02453 other isoform, or with tags, fused parts or gaps, chain 2 of 2): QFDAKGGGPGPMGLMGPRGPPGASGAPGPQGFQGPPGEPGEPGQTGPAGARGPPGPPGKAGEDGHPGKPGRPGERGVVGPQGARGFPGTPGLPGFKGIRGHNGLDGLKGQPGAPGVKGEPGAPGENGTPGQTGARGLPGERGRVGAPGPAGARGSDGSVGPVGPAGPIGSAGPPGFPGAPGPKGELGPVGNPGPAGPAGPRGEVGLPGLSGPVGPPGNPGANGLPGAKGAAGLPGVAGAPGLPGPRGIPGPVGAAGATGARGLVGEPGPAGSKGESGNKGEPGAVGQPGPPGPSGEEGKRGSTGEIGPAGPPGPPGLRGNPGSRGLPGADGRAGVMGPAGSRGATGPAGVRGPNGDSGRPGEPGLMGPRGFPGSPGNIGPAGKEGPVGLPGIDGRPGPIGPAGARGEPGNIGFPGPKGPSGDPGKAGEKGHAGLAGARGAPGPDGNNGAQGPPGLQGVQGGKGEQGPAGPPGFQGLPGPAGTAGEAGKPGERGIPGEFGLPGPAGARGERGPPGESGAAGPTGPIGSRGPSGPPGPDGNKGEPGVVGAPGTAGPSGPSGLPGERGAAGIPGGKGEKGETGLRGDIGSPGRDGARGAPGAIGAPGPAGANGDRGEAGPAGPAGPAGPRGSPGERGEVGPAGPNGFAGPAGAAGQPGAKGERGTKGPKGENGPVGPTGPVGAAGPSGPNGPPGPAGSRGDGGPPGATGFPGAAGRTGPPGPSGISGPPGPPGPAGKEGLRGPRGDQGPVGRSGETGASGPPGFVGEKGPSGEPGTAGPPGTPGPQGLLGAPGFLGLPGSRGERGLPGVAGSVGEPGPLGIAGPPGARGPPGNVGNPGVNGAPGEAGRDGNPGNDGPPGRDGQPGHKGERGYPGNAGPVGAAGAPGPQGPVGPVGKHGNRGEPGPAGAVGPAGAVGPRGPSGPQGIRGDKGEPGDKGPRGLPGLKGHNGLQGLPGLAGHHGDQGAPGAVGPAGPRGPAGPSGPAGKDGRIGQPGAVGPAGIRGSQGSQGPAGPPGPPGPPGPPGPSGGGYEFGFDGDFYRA

B1: trypsin-activated MMP1 (43 kD active human matrix metalloproteinase-1) (protein)
chain: VLTEGNPRWEQTHLTYRIENYTPDLPRADVDHAIEKAFQLWSNVTPLTFTKVSEGQADIMISFVRGDHRDNSPFDGPGGNLAHAFQPGPGIGGDAHFDEDERWTNNFREYNLHRVAAHELGHSLGLSHSTDIGALMYPSYTFSGDVQLAQDDIDGIQAIYGRSQNPVQPIGPQTPKACDSKLTFDAITTIRGEVMFFKDRFYMRTNPFYPEVELNFISVFWPQLPNGLEAAYEFADRDEVRFFKGNKYWAVQGQNVLHGYPKDIYSSFGFPRTVKHIDAALSEENTGKTYFFVANKYWRYDEYKRSMDPGYPKMIAHDFPGIGHKVDAVFMKDGFFYFFHGTRQYKFDPKTKRILTLQKANSWFNCRKN
Q: With B1 as the protein, how does the “collagen cleavage on SDS PAGE” value [1] read?
A: The value was “active MMP1 cleaves type-1 collagen into ¾ and ¼ fragments”.

Q: What about the “kcat (weight-based collagen degradation assay)” value [1] of the same protein?
A: The value was ~19 monomers per MMP1 per hour.

Q: And the kcat/MMP1/hr using 1 mg/ml concentration (+MMP1 for 1 hr) [1]?
A: The kcat/MMP1/hr using 1 mg/ml concentration (+MMP1 for 1 hr) was 0.5 /MMP1/hr.

Q: What about the kcat/MMP1/hr using 1 mg/ml concentration (+MMP1 for 2 hr) [1] of the same protein?
A: The kcat/MMP1/hr using 1 mg/ml concentration (+MMP1 for 2 hr) was 0.21 /MMP1/hr.

Q: And the kcat/MMP1/hr using 1 mg/ml concentration (+MMP1 for 3 hr) [1]?
A: Its kcat/MMP1/hr using 1 mg/ml concentration (+MMP1 for 3 hr) is 0.19 /MMP1/hr.

Q: And the kcat/MMP1/hr using 1 mg/ml concentration (+MMP1 for 4 hr) [1]?
A: The kcat/MMP1/hr using 1 mg/ml concentration (+MMP1 for 4 hr) was 0.15 /MMP1/hr.

Q: And the kcat/MMP1/hr using 1 mg/ml concentration (+MMP1 for 5 hr) [1]?
A: Its kcat/MMP1/hr using 1 mg/ml concentration (+MMP1 for 5 hr) is 0.14 /MMP1/hr.

Q: And the kcat/MMP1/hr using 1 mg/ml concentration (+MMP1 for 6 hr) [1]?
A: The kcat/MMP1/hr using 1 mg/ml concentration (+MMP1 for 6 hr) was 0.11 /MMP1/hr.

Q: And the kcat/MMP1/hr using 1 mg/ml concentration (+MMP1 for 7 hr) [1]?
A: Its kcat/MMP1/hr using 1 mg/ml concentration (+MMP1 for 7 hr) is 0.1 /MMP1/hr.

Q: And the kcat/MMP1/hr using 1 mg/ml concentration (+MMP1 for 8 hr) [1]?
A: Its kcat/MMP1/hr using 1 mg/ml concentration (+MMP1 for 8 hr) is 0.1 /MMP1/hr.

Q: What about the kcat/MMP1/hr using 1 mg/ml concentration (+MMP1 for 9 hr) [1] of the same protein?
A: The kcat/MMP1/hr using 1 mg/ml concentration (+MMP1 for 9 hr) was 0.09 /MMP1/hr.

Q: And the kcat/MMP1/hr using 1 mg/ml concentration (+MMP1 for 10 hr) [1]?
A: The kcat/MMP1/hr using 1 mg/ml concentration (+MMP1 for 10 hr) was 0.09 /MMP1/hr.

Q: What about the kcat/MMP1/hr using 114.2 mg/ml concentration (+MMP1 for 1 hr) [1] of the same protein?
A: Its kcat/MMP1/hr using 114.2 mg/ml concentration (+MMP1 for 1 hr) is 58 /MMP1/hr.

Q: And the kcat/MMP1/hr using 114.2 mg/ml concentration (+MMP1 for 2 hr) [1]?
A: The kcat/MMP1/hr using 114.2 mg/ml concentration (+MMP1 for 2 hr) was 24 /MMP1/hr.

Q: What about the kcat/MMP1/hr using 114.2 mg/ml concentration (+MMP1 for 3 hr) [1] of the same protein?
A: The kcat/MMP1/hr using 114.2 mg/ml concentration (+MMP1 for 3 hr) was 22 /MMP1/hr.

Q: What about the kcat/MMP1/hr using 114.2 mg/ml concentration (+MMP1 for 4 hr) [1] of the same protein?
A: Its kcat/MMP1/hr using 114.2 mg/ml concentration (+MMP1 for 4 hr) is 17 /MMP1/hr.

Q: And the kcat/MMP1/hr using 114.2 mg/ml concentration (+MMP1 for 5 hr) [1]?
A: The kcat/MMP1/hr using 114.2 mg/ml concentration (+MMP1 for 5 hr) was 16 /MMP1/hr.

Q: And the kcat/MMP1/hr using 114.2 mg/ml concentration (+MMP1 for 6 hr) [1]?
A: The kcat/MMP1/hr using 114.2 mg/ml concentration (+MMP1 for 6 hr) was 13 /MMP1/hr.

Q: And the kcat/MMP1/hr using 114.2 mg/ml concentration (+MMP1 for 7 hr) [1]?
A: The kcat/MMP1/hr using 114.2 mg/ml concentration (+MMP1 for 7 hr) was 11 /MMP1/hr.

Q: What about the kcat/MMP1/hr using 114.2 mg/ml concentration (+MMP1 for 8 hr) [1] of the same protein?
A: The kcat/MMP1/hr using 114.2 mg/ml concentration (+MMP1 for 8 hr) was 11 /MMP1/hr.

Q: And the kcat/MMP1/hr using 114.2 mg/ml concentration (+MMP1 for 9 hr) [1]?
A: The kcat/MMP1/hr using 114.2 mg/ml concentration (+MMP1 for 9 hr) was 10 /MMP1/hr.

Q: What about the kcat/MMP1/hr using 114.2 mg/ml concentration (+MMP1 for 10 hr) [1] of the same protein?
A: The kcat/MMP1/hr using 114.2 mg/ml concentration (+MMP1 for 10 hr) was 10 /MMP1/hr.

Q: What about the “reaction rate k (RFU of degraded substrate by 0.05 µg MMP1)” value [2] of the same protein?
A: Its value is “k=0.26±0.02 RFU/min”.

Q: What about the “specific activity (RFU)” value [2] of the same protein?
A: The value was “k/0.05=5.2 RFU/min/µg”.

Q: And the “specific activity (fluorogenic peptide substrate, 37° C.)” value [2]?
A: The value was roughly 999 pmol/min/µg.

B2: catalytically inactive mutant MMP1 (E219Q) (protein)
chain: VLTEGNPRWEQTHLTYRIENYTPDLPRADVDHAIEKAFQLWSNVTPLTFTKVSEGQADIMISFVRGDHRDNSPFDGPGGNLAHAFQPGPGIGGDAHFDEDERWTNNFREYNLHRVAAHQLGHSLGLSHSTDIGALMYPSYTFSGDVQLAQDDIDGIQAIYGRSQNPVQPIGPQTPKACDSKLTFDAITTIRGEVMFFKDRFYMRTNPFYPEVELNFISVFWPQLPNGLEAAYEFADRDEVRFFKGNKYWAVQGQNVLHGYPKDIYSSFGFPRTVKHIDAALSEENTGKTYFFVANKYWRYDEYKRSMDPGYPKMIAHDFPGIGHKVDAVFMKDGFFYFFHGTRQYKFDPKTKRILTLQKANSWFNCRKN
Q: B2 was tested. Which “collagen degradation on SDS PAGE” value [1] did it give?
A: Its value is “did not show degradation of type-1 collagen”.

— patent US20190233808
